Experimental data taken from patent US20180346592A1.
Where a chain is given by its changes, count along the chain named.

B1: clone GS010 (scFv, V domains shown)
VH: EVQLLESGGGLVQPGGSLRLSCAASGFTFSNYSMSWVRQAPGKGLEWVSVISPSSGSIYYADSVKGRFTISRDNSKNTLYLQMNSLRAEDTAVYYCARYRVRQLKHTRSYADAMDVWGQGTLVTVSS
VL: QSVLTQPPSASGAPGQRVTISCSGSSSNIGSNAVSWYQQLPGTAPKLLIYANSHRPSGVPDRFSGSKSGTSASLAISGLRSEDETDYYCASWDSSLSGYVFGGGTKLTVLG
B2: clone GS006 (scFv, V domains shown)
VH: EVQLLESGGGLVQPGGSLRLSCAASGFTFSGYSMSWVRQAPGKGLEWVSAISPGGGSKYYADSVRGRFTVSRDNSKNTLYLQMNSLRAEDTAVYYCARYRVQKSAKNVYSSNGMDVWGQGTLVTVSS
VL: QSVLTQPPPASGTPGQRVTISCSGSSSNIGNNAVNWYQQLPGTAPKLLIYYDSNRPSGVPDRFSGSKSGTSASLAISGLRSEDEADYYCGAWDSSLSAYVFGGGTKLTVLG
B3: clone GS004 (scFv, V domains shown)
VH: EVQLLESGGGLVQPGGSLRLSCAVSGFTFSNYSMSWVRQAPGKGLEWVSAISPGSSNKYYADSVKGRFTISRDNSKNTLYLQMNSLRAEDTAVYYCARYRVWAHSASSSYSNAMDVWGQGTLVTVSS
VL: B2 VL with P9S, A33D, N35S, Y51S, N54Q, A91S, S94D, S97N, A98G
B4: clone GS002 (scFv, V domains shown)
VH: EVQLLESGGGLVQPGGSLRLSCAASGFTFSGYSMSWVRQAPGKGLEWVSSISPGGSSTYYADSVKGRFTISRDNSKNTLYLQMSSLRAEDTAVYYCARYRVWHMTTGDYYSNAMDVWGQGTLVTVSS
VL: QSVLTQPPSASGTPGQRVTISCTGSSSNIGSNAVSWYQQLPGTAPKLLIYDDNKRPSGVLDRFSGSKSGTSASLAISGLRSEDEADYYCGTWDDSLSGYVFGGGTKLTVLG
B5: clone GS015 (scFv, V domains shown)
VH: EVQLLESGGGLAQPGGSLRLSCAASGFTFSDYSMSWVRQAPGKGLEWVSAISPDGGSKYYADSVKGRFTISRDNSKNTLYLQMNSLRAEDTAVYYCARFRVIKLRAGWYSANGMDVWGQGTLVTVSS
VL: B2 VL with P9S, A33D, N35S, D52N, N54K, S94D, S97N, A98G
B6: clone GS014 (scFv, V domains shown)
VH: EVQLLESGGGLVQPGGSLRLSCAASGFTFSNYAMSWVRQAPGKGLEWVSVISPNSGSNTYYADSVKGRFTISRDNSKNTLYLQMNSLRAEDTAVYYCARPRILRRRVDHSYSYAMDVWGQGTLVTVSS
VL: B4 VL with S31N, A33Y, D51S, D52N, N53S, K54H, L60P, D94Y, F101L
B7: clone GN414 (scFv, V domains shown)
VH: QVQLVQSGAEVKKPGASVKVSCKASGYTFSTYGITWVRQAPGQGLEWMGRITPNNGVTDYAQKFQGRVTMTRDTSISTAYMELSSLRSDDSAVYYCAREIGSSSWKLLDPWGQGTMVTVSS
VL: QAVLTQPSSVSVSPGQTASITCTGNSNNVGYEGAAWVQQYQGHPPKLLSDRNHNRPSGISERFSASRSGNTASLTITGLQSEDEADYYCSAWDSSLSEWVSGGGTKLTVLG
B8: clone GN328 (scFv, V domains shown)
VH: EVQLVESGGGLVQPGGSLRVSCAASGFTFSTAWMDWVRQAPGKGLEWVANINPDGSEKHYVDSVKGRFTVSRDNAKNSVYLHMNNLRAEDTAVYYCSKALDYWGQGTTVTVSS
VL: DIQMTQSPSTLSASVGDRVTITCRASQNINTWLAWYQQKPGKAPEVLIYEASSLESGVPPRFSGSGSGTEFTLTISSLQPDDSATYYCQQYNTYSPTFGQGTKLEIKR
B9: clone GX263 (scFv, V domains shown)
VH: EVQLVESGGGLVKPGGSLRLSCAASGFTFSSYSMNWVRQAPGKGLEWVSSISSSSSYIYYADSVKGRFTISRDNAKNSLYLQMNSLRAEDTAVYYCARVTPYYYYGMDVWGQGTTVTVSS
VL: QSVVTQPPSVSAAPGQKVTISCSGSSSNIGNNYVSWYQQLPGTAPKLLIYDSNKRPPGIPDRFSGSKSGTSATLGITGLQTGDEADYYCGAWDSSLSAVVFGGGTKLTVLG
B10: clone GX247 (scFv, V domains shown)
VH: QVQLVQSGAEVKKPGASVKVSCKASGYTFTSYYMHWVRQAPGQGLEWMGIINPSGGSTSYAQKFQGRVTMTRDTSTSTVYMELSSLRSEDTAVYYCARTRKGSGYSYGYGMDVWGQGTTVTVSS
VL: SYELTQPPSVSVSPGQTASITCSGDKLGNKYVSWYQQKPGQSPVLVIYQDNKRPSGIPERFSGSNSGNTATLTISGTQAMDEAGYYCQTWDSSVVFGGGTKLTVLG
B11: clone GX184 (scFv, V domains shown)
VH: QLQLQESGPGLVKPSETLSLTCAVSGGSISSSNNYWGWIRQPPGKGLEWIGSIFYSGSTYYNPSLKSRVTISVDTSKNQFSLKLSSVTAADTAVYYCARLPTGTPGFYFDYWGQGTLVTVSS
VL: SYELTQPPSVSKGLRQTATLTCTGNSNNVGNQGAAWLQQHQGHPPKLLSYRNNNRPSGISERFSASRSGNTASLTITGLQPEDEADYYCSAWDSSLSAWVFGGGTKLTVLG

target: GPC3 on the surface of hepatic cancer cell lines (SK-Hep1-GPC3 transfectant, HepG2, Huh7, Hep3B, SNU398) (human) (UniProt P51654); assay: FACS, HepG2 cells, 1 ug antibody; upper right panel (Synthetic library)

First: B1
Second: B2
The Mean, FL2-H of the first is higher: 4.72 for the first, 3.41 for the second.

Compared with B3, B4 is higher in Mean, FL2-H: 4.38 for the first, 4.71 for the second.

Going from B5 to B6, the Mean, FL2-H rises from 3.64 to 5.66.

target: GPC3 on the surface of hepatic cancer cell lines (SK-Hep1-GPC3 transfectant, HepG2, Huh7, Hep3B, SNU398) (human) (UniProt P51654); assay: FACS, HepG2 cells, 1 ug antibody; lower left panel (Human naive library)

First: B7
Second: B8
The Mean, FL2-H of the first is higher: 6.9 for the first, 4.24 for the second.

Compared with B9, B10 is lower in Mean, FL2-H: 6.06 for the first, 5.53 for the second.

Work on B11 yielded a Mean, FL2-H of 5.39.

target: GPC3 on the surface of hepatic cancer cell lines (SK-Hep1-GPC3 transfectant, HepG2, Huh7, Hep3B, SNU398) (human) (UniProt P51654); assay: FACS, SK-Hep1-GPC3 #9 cells, 1 ug antibody; lower left panel

Going from B7 to B8, the Mean, FL2-H rises from 3.75 to 4.17.

Going from B9 to B10, the Mean, FL2-H rises from 3.71 to 6.07.

In the case of B11, the Mean, FL2-H is reported as 3.99.

target: GPC3 on the surface of hepatic cancer cell lines (SK-Hep1-GPC3 transfectant, HepG2, Huh7, Hep3B, SNU398) (human) (UniProt P51654); assay: FACS, SK-Hep1-GPC3 #9 cells, 1 ug antibody; upper right panel

Going from B1 to B2, the Mean, FL2-H falls from 4.53 to 3.65.

Going from B3 to B4, the Mean, FL2-H rises from 4.11 to 4.17.

Going from B5 to B6, the Mean, FL2-H falls from 5.34 to 4.39.
